Bridge positions count the residues as written; N and C are the ends. Square brackets hold non-standard residues; d marks the D form. Primed or numbered codes have the meaning given here. Ends that are not written are not given here. Tyr(3-NO2) = N[C@@H](Cc1ccc(O)c([N+](=O)[O-])c1)C(=O)O; Tyr(3-Cl) = N[C@@H](Cc1ccc(O)c(Cl)c1)C(=O)O; Phe(4-NH2) = Nc1ccc(C[C@H](N)C(=O)O)cc1; 1,4 AMB(Gd^T) = not defined here; Gd^T = not defined here; Gd^T″ = GdDTPA-thiourea

B1: Compound ID 816 (peptide)
peptide: {Gd^T″}-GQWHCTTYFPHHYCLYG-{1,4 AMB(Gd^T)}
modifications: disulfide 5-14 (inferred); reading uncertain
B2: Compound ID 910 (peptide)
peptide: {Gd^T″}-GDWHCTTLFPHH[dY]CLYG
modifications: disulfide 5-14 (inferred); not fully specified (C-terminus)
B3: Compound ID 917 (peptide)
peptide: {Gd^T″}-GQWHCTTIFPHH[dY]CLYG
modifications: disulfide 5-14 (inferred); not fully specified (C-terminus)
B4: Compound ID 853 (peptide)
peptide: {Gd^T}-GQWHCTTAFPHHYCLYG
modifications: disulfide 5-14 (inferred); not fully specified (C-terminus); reading uncertain
B5: Compound ID 921 (peptide)
peptide: {Gd^T″}-GQWHCTYLFPHHYCLYG
modifications: disulfide 5-14 (inferred)
B6: Compound ID 911 (peptide)
peptide: {Gd^T″}-GSWHCTTLFPHH[dY]CLYG
modifications: disulfide 5-14 (inferred); not fully specified (C-terminus)
B7: Compound ID 920 (peptide)
peptide: GQWHCYTLFPHHYCLYG
modifications: disulfide 5-14 (inferred); not fully specified (N-terminus)
B8: Compound ID 864 (peptide)
peptide: {Gd^T}-GQWHCTTRFPHH[dY]CLYG
modifications: disulfide 5-14 (inferred); not fully specified (C-terminus); reading uncertain
B9: Compound ID 880 (peptide)
peptide: {Gd^T″}-GQWHCTTRFPSHYCLYG
modifications: disulfide 5-14 (inferred)
B10: Compound ID 876 (peptide)
peptide: {Gd^T″}-GQWACTTRFPHHYCLYG
modifications: disulfide 5-14 (inferred)
B11: Compound ID 859 (peptide)
peptide: {Gd^T}-GQWHCTTRYPHHYCLYG
modifications: disulfide 5-14 (inferred); not fully specified (C-terminus); reading uncertain
B12: Compound ID 923 (peptide)
peptide: {Gd^T″}-GQWHCTTLFPNHYCLYG
modifications: disulfide 5-14 (inferred)
B13: Compound ID 908 (peptide)
peptide: {Gd^T″}-GAWHCTTLFPHH[dY]CLYG
modifications: disulfide 5-14 (inferred); not fully specified (C-terminus)
B14: Compound ID 890 (peptide)
peptide: {Gd^T″}-GQWHCTTDFPHHYCLFG
modifications: disulfide 5-14 (inferred)
B15: Compound ID 851 (peptide)
peptide: {Gd^T}-GQWHCTTDFPHHYCLYG
modifications: disulfide 5-14 (inferred); not fully specified (C-terminus); reading uncertain
B16: Compound ID 857 (peptide)
peptide: {Gd^T}-GAWHCTTRFPHHYCLYG
modifications: disulfide 5-14 (inferred); not fully specified (C-terminus); reading uncertain
B17: Compound ID 892 (peptide)
peptide: {Gd^T″}-GQWHCTTDFPHHYCL[Tyr(3-Cl)]G
modifications: disulfide 5-14 (inferred)
B18: Compound ID 866 (peptide)
peptide: {Gd^T}-G[dQ]WHCTTRFPHHYCLYG
modifications: disulfide 5-14 (inferred); not fully specified (C-terminus); reading uncertain
B19: Compound ID 813 (peptide)
peptide: {Gd^T″}-GQWHCTTK(Gd^T″)FPHHYCLYG
modifications: disulfide 5-14 (inferred); not fully specified (C-terminus)
B20: Compound ID 879 (peptide)
peptide: {Gd^T″}-GQWHCT[dT]RFPHHYCLYG
modifications: disulfide 5-14 (inferred)
B21: Compound ID 877 (peptide)
peptide: {Gd^T″}-GQWHCATRFPHHYCLYG
modifications: disulfide 5-14 (inferred)
B22: Compound ID 924 (peptide)
peptide: {Gd^T″}-GQWHCTTLFPHNYCLYG
modifications: disulfide 5-14 (inferred)
B23: Compound ID 870 (peptide)
peptide: {Gd^T″}-GQWSCTTRFPHHYCLYG
modifications: disulfide 5-14 (inferred)
B24: Compound ID 899 (peptide)
peptide: {Gd^T″}-GQWHCT[dY]RFPHHYCLYG
modifications: disulfide 5-14 (inferred); not fully specified (C-terminus)
B25: Compound ID 815 (peptide)
peptide: {Gd^T″}-GQWHCTTRFPHHYCK(Gd^T″)YG
modifications: disulfide 5-14 (inferred); not fully specified (C-terminus)
B26: Compound ID 884 (peptide)
peptide: {Gd^T″}-GQWHCTTD[Phe(4-NH2)]PHHYCLYG
modifications: disulfide 5-14 (inferred)
B27: Compound ID 922 (peptide)
peptide: {Gd^T″}-GQWNCTTLFPHHYCLYG
modifications: disulfide 5-14 (inferred)
B28: Compound ID 915 (peptide)
peptide: {Gd^T″}-GAWHCTTYFPHH[dY]CLYG
modifications: disulfide 5-14 (inferred); not fully specified (C-terminus)
B29: Compound ID 865 (peptide)
peptide: {Gd^T}-GQWHCTTRFPAHYCLYG
modifications: disulfide 5-14 (inferred); not fully specified (C-terminus); reading uncertain
B30: Compound ID 855 (peptide)
peptide: {Gd^T}-GQWHCTTRFPHHYCAYG
modifications: disulfide 5-14 (inferred); not fully specified (C-terminus); reading uncertain
B31: Compound ID 801 (peptide)
peptide: {Gd^T″}-K(Gd^T″)K(Gd^T″)WHCYTYFPHHYCVYG
modifications: disulfide 5-14 (inferred); not fully specified (C-terminus)
B32: Compound ID 843 (peptide)
peptide: {Gd^T}-DWTC[Tyr(3-NO2)]GDEYTWHCNYE
modifications: disulfide 4-13 (inferred); not fully specified (C-terminus); reading uncertain
B33: Compound ID 844 (peptide)
peptide: {Gd^T}-DWTCYGDEYTWHCNYE
modifications: disulfide 4-13 (inferred); not fully specified (C-terminus); reading uncertain
B34: Compound ID 845 (peptide)
peptide: {Gd^T}-DWTCSGDEYRWHCNYE
modifications: disulfide 4-13 (inferred); not fully specified (C-terminus); reading uncertain

T2 sequence (P02452 162-1218 limits assumed, chain 1 of 2): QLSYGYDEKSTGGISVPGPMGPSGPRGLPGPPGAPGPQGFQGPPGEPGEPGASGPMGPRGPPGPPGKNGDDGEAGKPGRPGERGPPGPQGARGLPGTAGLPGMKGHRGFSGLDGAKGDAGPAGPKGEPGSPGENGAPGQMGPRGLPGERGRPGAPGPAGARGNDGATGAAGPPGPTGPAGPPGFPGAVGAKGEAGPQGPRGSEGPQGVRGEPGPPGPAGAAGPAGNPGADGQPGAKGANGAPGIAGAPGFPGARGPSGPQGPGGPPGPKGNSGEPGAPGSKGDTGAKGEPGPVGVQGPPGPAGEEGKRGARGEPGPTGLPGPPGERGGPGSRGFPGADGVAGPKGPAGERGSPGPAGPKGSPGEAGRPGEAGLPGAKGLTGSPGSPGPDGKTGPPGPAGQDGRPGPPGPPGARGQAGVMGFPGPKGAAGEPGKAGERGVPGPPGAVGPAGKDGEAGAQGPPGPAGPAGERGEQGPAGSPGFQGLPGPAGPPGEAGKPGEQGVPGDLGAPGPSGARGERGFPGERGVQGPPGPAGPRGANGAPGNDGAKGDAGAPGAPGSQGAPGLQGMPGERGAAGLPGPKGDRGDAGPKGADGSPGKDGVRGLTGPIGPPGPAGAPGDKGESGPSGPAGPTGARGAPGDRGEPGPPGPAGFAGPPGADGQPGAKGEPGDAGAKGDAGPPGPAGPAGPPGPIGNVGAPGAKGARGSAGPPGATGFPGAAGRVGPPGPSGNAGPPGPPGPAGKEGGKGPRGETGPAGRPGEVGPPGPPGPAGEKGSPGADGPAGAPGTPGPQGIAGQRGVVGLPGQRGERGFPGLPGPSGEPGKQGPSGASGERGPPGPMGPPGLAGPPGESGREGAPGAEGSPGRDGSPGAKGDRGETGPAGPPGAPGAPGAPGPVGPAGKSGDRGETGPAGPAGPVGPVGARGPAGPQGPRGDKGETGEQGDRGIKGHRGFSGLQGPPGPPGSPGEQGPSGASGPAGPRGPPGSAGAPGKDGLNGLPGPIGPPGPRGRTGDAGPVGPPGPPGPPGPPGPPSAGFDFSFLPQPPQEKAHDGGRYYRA
T2 sequence (P08123 80-1119 limits assumed, chain 2 of 2): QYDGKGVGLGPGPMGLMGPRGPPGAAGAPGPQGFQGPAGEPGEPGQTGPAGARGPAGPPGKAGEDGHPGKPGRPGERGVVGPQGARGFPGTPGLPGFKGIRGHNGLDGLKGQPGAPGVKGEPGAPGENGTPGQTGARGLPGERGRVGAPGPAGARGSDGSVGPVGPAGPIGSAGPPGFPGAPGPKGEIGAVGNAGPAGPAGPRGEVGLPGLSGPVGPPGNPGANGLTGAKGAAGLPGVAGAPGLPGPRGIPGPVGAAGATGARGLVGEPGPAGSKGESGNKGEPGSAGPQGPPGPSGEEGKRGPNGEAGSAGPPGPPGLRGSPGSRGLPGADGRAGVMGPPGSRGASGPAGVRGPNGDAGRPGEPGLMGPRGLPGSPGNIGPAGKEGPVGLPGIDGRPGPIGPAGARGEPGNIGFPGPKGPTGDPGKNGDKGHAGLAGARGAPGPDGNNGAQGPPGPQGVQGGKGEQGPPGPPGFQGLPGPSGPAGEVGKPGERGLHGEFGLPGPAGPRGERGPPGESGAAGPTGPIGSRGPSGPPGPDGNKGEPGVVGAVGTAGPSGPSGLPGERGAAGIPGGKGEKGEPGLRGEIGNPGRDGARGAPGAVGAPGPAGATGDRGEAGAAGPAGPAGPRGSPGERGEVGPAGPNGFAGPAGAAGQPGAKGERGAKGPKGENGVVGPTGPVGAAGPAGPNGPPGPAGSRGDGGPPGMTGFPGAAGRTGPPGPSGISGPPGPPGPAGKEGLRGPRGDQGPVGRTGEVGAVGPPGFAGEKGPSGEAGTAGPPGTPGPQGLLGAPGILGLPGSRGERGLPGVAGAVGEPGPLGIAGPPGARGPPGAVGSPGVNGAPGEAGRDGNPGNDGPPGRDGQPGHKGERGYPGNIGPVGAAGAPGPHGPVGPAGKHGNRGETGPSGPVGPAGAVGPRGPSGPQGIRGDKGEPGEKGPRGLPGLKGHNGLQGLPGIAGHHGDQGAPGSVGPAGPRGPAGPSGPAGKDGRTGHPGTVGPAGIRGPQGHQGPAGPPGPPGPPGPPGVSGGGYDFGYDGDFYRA

In the first experiment the target is T1, rat collagen, acid soluble, type I, rat tail (Upstate 08-115) (rat, UniProt P02454 152-1207; P02466 86-1125).
T1 construct: tissue extract, gelled and dried in wells; also called dried rat collagen
T1 sequence (P02454 152-1207, chain 1 of 2): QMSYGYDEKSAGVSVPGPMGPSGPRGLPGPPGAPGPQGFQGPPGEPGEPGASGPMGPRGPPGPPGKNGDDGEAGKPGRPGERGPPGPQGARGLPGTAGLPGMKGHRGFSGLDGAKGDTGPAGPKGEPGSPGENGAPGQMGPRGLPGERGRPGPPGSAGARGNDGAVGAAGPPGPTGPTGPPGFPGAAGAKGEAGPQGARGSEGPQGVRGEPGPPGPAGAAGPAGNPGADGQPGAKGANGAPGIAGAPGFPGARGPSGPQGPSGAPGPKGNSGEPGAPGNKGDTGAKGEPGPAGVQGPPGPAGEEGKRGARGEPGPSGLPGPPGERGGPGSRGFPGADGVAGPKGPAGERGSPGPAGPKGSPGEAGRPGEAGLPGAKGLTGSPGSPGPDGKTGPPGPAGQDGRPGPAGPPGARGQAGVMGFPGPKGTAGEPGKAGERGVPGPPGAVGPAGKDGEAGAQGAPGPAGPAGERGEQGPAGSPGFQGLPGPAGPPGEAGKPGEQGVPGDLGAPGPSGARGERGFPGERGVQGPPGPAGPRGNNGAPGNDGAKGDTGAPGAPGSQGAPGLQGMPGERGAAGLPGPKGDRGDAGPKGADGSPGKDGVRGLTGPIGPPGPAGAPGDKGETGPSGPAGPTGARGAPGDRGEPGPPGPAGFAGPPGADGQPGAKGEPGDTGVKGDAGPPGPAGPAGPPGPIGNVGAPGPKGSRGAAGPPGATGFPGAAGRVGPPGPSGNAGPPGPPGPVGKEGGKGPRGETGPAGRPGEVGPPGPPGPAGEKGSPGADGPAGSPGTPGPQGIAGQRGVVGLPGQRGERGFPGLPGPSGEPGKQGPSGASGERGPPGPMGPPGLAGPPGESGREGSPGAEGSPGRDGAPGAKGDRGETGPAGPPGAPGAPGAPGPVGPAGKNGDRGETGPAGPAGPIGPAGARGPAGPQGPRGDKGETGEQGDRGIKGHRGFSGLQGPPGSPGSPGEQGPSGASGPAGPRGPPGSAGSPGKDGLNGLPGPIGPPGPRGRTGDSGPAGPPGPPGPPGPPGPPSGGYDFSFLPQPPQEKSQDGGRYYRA
T1 sequence (P02466 86-1125, chain 2 of 2): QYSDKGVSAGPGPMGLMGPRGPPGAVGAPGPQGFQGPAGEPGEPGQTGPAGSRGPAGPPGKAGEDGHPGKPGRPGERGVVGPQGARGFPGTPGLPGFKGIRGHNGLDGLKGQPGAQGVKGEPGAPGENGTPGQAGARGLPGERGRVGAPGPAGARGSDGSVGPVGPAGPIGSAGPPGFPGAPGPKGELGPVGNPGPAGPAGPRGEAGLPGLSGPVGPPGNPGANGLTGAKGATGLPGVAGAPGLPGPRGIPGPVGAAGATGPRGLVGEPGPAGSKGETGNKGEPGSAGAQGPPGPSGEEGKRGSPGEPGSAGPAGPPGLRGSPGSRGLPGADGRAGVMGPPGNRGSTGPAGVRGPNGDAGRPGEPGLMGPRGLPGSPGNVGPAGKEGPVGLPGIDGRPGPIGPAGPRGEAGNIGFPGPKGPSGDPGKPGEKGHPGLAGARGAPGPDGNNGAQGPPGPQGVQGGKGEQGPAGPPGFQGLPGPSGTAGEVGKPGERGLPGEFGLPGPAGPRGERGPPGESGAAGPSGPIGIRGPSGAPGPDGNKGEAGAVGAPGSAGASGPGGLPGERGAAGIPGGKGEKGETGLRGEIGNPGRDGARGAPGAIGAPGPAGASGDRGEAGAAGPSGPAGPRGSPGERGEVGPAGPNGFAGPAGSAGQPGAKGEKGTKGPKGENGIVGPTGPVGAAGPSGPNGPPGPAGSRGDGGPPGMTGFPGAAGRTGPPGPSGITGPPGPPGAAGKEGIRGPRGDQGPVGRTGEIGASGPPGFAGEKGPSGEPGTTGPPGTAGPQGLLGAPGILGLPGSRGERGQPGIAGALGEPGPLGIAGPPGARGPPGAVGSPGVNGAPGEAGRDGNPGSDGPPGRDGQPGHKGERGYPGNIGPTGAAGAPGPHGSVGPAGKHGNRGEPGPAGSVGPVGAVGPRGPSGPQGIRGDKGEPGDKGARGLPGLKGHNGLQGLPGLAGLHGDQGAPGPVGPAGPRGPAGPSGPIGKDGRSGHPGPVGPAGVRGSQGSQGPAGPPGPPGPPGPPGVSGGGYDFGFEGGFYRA
Briefly: dried collagen assay.
Turning to B1, the “% bound” value was determined as 48%.
For B2, the “% bound” value was 0%.
As to B3, the “% bound” value amounted to 0%.
As for B4, the “% bound” value was determined as 57%.
Turning to B5, the “% bound” value was determined as 35%.
In the case of B6, the “% bound” value turned out to be 0%.
Turning to B7, the “% bound” value is 91%.
Still for that read-out and setting: the result for B8 reads 50%; that for B9, 0%.
Same read-out and setting: the value for B10 was 26%; that for B11 was 38%; that for B12 was 10%.
Same read-out and setting: the result for B13 reads 0%; that for B14, 15%; that for B15, 41%.
Consider B16, for which the “% bound” value turned out to be 69%.
Consider B17, for which the “% bound” value came out at 56%.
Take B18: the “% bound” value was 38%.
Consider B19, for which the “% bound” value is 55%.
Take B20: the “% bound” value came to 0%.
With B21, the “% bound” value turned out to be 41%.
The same measure, in the same setting: the result for B22 reads 1%.
Turning to B23, the “% bound” value is 28%.
On to B24, for which the “% bound” value amounted to 14%.
B25: the “% bound” value came to 59%.
With B26, the “% bound” value amounted to 15%.
On to B27, for which the “% bound” value is 58%.
Same read-out and setting: the result for B28 reads 0%; that for B29, 17%; that for B30, 15%.
Same read-out and setting: the result for B31 reads 77%.
Still for that read-out and setting: the result for B32 reads 36%; that for B33, 48%.
With B34, the “% bound” value was 10%.

A further experiment has as its target T2, human collagen type I, acid soluble, extracted from placenta (Sigma C7774) (human, UniProt P02452 162-1218; P08123 80-1119).
T2 construct: tissue extract, gelled and dried in wells; also called dried human collagen; h-Collagen
In words: dried collagen assay.
As to B1, the “% bound” value was 48%.
As for B2, the “% bound” value is 13%.
The same measure, in the same setting: the value for B3 was 12%; that for B4 was 66%; that for B5 was 68%.
Consider B6, for which the “% bound” value was 15%.
For B7, the “% bound” value came to 67%.
B8: the “% bound” value worked out at 64%.
Consider B9, for which the “% bound” value was found to be 30%.
Turning to B10, the “% bound” value came to 48%.
For B11, the “% bound” value came to 47%.
B12: the “% bound” value stood at 28%.
In the case of B13, the “% bound” value turned out to be 20%.
Consider B14, for which the “% bound” value was 38%.
On to B15, for which the “% bound” value is 50%.
Same read-out and setting: the value for B16 was 67%.
B17: the “% bound” value came out at 63%.
Turning to B18, the “% bound” value was 60%.
B19: the “% bound” value was 65%.
Consider B20, for which the “% bound” value was 33%.
As to B21, the “% bound” value came out at 58%.
Same read-out and setting: the value for B22 was 24%; that for B23 was 30%.
Consider B24, for which the “% bound” value is 20%.
In the case of B25, the “% bound” value was found to be 66%.
Turning to B26, the “% bound” value was 24%.
Turning to B27, the “% bound” value came out at 68%.
On the same count and under the same terms, the value for B28 was 15%; that for B29 was 30%.
In the case of B30, the “% bound” value stood at 27%.
B31: the “% bound” value came to 81%.
On to B32, for which the “% bound” value is 55%.
B33: the “% bound” value was 68%.
Same read-out and setting: the value for B34 was 36%.

The values above are taken from patent US20080044360A1 (COLLAGEN MEDICAL, published 2008).
